{
  "source": "patent US20020012949A1",
  "about": "“Assay systems for leptin-enhancing agents” (priority 1997, published 2002)",
  "target": "T1, OB-R (Homo sapiens, UniProt P48357)",
  "T1 construct": "The cytoplasmic domain and full-length human OB-R was cloned by PCR; expressed in transfected cells; host or cells: COS-7",
  "T1 sequence (P48357 22-1165)": "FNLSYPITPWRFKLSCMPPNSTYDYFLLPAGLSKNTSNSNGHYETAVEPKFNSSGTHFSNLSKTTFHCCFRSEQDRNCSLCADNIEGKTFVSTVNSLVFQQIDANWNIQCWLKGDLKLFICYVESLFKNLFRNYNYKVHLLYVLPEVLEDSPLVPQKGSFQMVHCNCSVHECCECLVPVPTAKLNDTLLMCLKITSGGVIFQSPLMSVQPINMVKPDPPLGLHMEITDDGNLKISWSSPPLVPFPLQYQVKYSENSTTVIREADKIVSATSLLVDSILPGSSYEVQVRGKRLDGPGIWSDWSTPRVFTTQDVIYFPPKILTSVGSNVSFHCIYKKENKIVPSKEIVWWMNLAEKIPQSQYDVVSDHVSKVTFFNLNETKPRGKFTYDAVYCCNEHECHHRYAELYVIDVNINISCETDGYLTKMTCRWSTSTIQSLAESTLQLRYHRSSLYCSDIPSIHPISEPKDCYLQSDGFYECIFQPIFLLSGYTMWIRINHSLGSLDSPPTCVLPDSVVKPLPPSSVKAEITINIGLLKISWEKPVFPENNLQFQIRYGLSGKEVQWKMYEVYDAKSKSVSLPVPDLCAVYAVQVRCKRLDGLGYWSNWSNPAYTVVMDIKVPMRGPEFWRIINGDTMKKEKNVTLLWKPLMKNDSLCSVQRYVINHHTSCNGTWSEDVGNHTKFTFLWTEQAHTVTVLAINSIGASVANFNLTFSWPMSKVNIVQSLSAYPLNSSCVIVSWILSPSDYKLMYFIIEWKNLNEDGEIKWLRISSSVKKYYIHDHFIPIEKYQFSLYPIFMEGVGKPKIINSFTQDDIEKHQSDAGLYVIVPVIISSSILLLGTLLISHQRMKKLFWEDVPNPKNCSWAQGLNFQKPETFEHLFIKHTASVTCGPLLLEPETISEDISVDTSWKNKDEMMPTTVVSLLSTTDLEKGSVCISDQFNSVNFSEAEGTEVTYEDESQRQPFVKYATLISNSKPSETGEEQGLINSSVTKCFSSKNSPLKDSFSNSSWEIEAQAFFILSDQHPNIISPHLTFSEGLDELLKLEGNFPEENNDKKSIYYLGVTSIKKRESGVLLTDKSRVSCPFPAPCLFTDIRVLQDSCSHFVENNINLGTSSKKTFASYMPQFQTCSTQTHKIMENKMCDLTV",
  "assay": "Luciferase reporter gene assay (3(G3)-Cy6-LUC), leptin stimulation of COS cells expressing wild type OB-R",
  "format": "cell-based",
  "settings": "100 ng/ml leptin for 24 hours, stimulated vs non-stimulated",
  "experimental": "The cytoplasmic domain and full-length human OB-R was cloned by PCR using human fetal liver and adipocyte cDNA (Clontech) and cloned into the expression vectors pCMX and pMT21. Chimeric receptors were constructed by fusing the extracellular domain and transmembrane domain of TrkC (amino acids 1 to 458) to the cytoplasmic domain of OB-R (amino acids 865-1165). A triple myc epitope tag was added at the C-terminus of all OB-R constructs (18). Truncation and point mutant constructs were generated by PCR and the sequences of all constructs were verified. Expression constructs were transfected into COS-7 cells using lipofectamine (GIBCO-BRL); 36-48 hours after transfection, cells were starved for either 2 hour,s for chimeric receptors or overnight for full-length receptors prior to stimulation.\nExpression constructs (1 μg) for OB-R, OB-RY1141F, OB-RY986F, OB-RY1078, 1079F, and OB-RY986, 1141F were co-transfected with 1 μg of 3(G3)-Cy6-LUC and 0.1 μg of pCMX.LacZ into COS-7 cells (6-well dishes) using lipofectamine. The day after transfection, media was changed to serum-free OptiMEM (GIBCO-BRL) and then treated with 100 ng/ml murine leptin (PeproTech) or human leptin (R&D Systems) for 24 hours. […] Luciferase and β-galactosidase activities were measured in cell lysates (30) and luciferase activity was normalized to β-galactosidase activity to control for transfection differences. […]",
  "data": [
    {"substance": "leptin: the product of the obese gene, secreted by adipocytes; ligand of OB-R", "values": [
      {"measurement": "induction of luciferase activity", "value": 6, "unit": "fold"}
    ]}
  ]
}
